For two molecules, Kd results are on record in paper PMC9482655 (2022).

The Kd is a measure of binding affinity in units of concentration.

Assay [1] has as its target JUNO ectodomain, biotin-labelled, sensor-bound (UniProt A6ND01 20-228, biotin on free lysine residues (EZ link sulfo-NHS-LC-biotinylation kit, 1:1 protein to biotin ratio)). Kind of assay: BLI. (Biolayer interferometry detects binding as a change in optical thickness at a sensor tip.)
The target of assay [2] is IZUMO1 ectodomain, biotin-labelled, sensor-bound (human, UniProt Q8IYV9 22-292, biotin on free lysine residues (EZ link sulfo-NHS-LC-biotinylation kit, 1:1 protein to biotin ratio)). Kind of assay: BLI.

B1: IZUMO1 ectodomain (BLI analyte) (domain or fragment)
chain: CVICDPSVVLALKSLEKDYLPGHLDAKHHKAMMERVENAVKDFQELSLNEDAYMGVVDEATLQKGSWSLLKDLKRITDSDVKGDLFVKELFWMLHLQKETFATYVARFQKEAYCPNKCGVMLQTLIWCKNCKKEVHACRKSYDCGERNVEVPQMEDMILDCELNWHQASEGLTDYSFYRVWGNNTETLVSKGKEATLTKPMVGPEDAGSYRCELGSVNSSPATIINFHVTVLPKMIKEEKPSPNIVTPGEATTESSISLQPLQPEKMLASR
As for B1, in assay [1], the Kd worked out at 36.8 nM.

B2: JUNO ectodomain (BLI analyte; target protein of the pull-down) (domain or fragment)
chain: GDELLNICMNAKHHKRVPSPEDKLYEECIPWKDNACCTLTTSWEAHLDVSPLYNFSLFHCGLLMPGCRKHFIQAICFYECSPNLGPWIQPVGSLGWEVAPSGQGERVVNVPLCQEDCEEWWEDCRMSYTCKSNWRGGWDWSQGKNRCPKGAQCLPFSHYFPTPADLCEKTWSNSFKASPERRNSGRCLQKWFEPAQGNPNVAVARLFAS
Take B2: the Kd in assay [2] amounted to 14.2 nM.
